Usually Kd stands for the equilibrium constant for the complex coming apart.

What all share (assay): Kd (EC50 corrected by depletion factor)
In one data set the target is T1, RTCA (UniProt O00442).
T1 sequence: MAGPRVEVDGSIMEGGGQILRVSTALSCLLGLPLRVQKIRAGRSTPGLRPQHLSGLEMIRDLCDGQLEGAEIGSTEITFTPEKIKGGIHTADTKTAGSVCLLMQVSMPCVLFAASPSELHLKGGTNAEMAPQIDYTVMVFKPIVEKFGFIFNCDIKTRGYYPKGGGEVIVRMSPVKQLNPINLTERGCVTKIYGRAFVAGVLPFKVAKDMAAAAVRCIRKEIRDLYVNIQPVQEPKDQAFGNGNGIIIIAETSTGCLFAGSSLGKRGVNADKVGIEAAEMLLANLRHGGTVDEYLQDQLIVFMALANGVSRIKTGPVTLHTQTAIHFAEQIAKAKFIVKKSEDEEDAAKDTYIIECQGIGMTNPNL
The protocol:
(§1)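 Competition-binding assay: HEK293-FT cell lysate (2.5 mg protein) pre-incubated 1 h at 4°C with free motif-containing RNA oligos (0 to 30 µM, 12 doses), then pulled down with the same 5'-amino-C6 RNA oligos immobilised on NHS-Sepharose beads (30 min, 4°C). Bound proteins were quantified by label-free LC-MS/MS and normalised to the water control. EC50 came from a four-parameter log-logistic fit; Kd = EC50 x depletion factor. Random/reversed control probes are dropped.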

The next data set has as its target T2, HNRNPUL1 (UniProt Q9BUJ2).
T2 sequence: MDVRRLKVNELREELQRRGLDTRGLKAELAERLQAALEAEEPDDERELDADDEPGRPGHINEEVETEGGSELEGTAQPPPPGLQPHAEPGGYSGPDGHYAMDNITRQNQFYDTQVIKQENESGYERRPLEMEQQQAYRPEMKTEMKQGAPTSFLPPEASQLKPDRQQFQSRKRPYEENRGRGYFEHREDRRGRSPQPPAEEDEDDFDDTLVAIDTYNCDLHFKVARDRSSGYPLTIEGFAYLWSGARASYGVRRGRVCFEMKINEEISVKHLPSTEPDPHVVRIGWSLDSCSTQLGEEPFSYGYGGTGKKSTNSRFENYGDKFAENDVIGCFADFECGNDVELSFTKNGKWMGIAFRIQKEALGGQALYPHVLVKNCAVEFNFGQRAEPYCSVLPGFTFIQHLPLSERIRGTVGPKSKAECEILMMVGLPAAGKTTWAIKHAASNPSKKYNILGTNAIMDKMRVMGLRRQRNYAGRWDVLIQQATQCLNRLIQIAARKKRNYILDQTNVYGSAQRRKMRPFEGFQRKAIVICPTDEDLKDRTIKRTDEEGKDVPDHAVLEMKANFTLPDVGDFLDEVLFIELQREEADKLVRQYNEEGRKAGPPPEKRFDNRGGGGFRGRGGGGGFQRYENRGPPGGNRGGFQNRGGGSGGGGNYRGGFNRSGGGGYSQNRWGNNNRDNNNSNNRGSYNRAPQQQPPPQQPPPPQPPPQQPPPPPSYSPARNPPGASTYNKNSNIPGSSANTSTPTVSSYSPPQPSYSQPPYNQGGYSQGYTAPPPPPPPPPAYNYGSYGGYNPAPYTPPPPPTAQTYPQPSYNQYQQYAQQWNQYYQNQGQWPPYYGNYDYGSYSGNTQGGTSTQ
The protocol:
as §1

In a further data set the target is T3, ZCCHC8 (UniProt Q6NZY4).
T3 sequence: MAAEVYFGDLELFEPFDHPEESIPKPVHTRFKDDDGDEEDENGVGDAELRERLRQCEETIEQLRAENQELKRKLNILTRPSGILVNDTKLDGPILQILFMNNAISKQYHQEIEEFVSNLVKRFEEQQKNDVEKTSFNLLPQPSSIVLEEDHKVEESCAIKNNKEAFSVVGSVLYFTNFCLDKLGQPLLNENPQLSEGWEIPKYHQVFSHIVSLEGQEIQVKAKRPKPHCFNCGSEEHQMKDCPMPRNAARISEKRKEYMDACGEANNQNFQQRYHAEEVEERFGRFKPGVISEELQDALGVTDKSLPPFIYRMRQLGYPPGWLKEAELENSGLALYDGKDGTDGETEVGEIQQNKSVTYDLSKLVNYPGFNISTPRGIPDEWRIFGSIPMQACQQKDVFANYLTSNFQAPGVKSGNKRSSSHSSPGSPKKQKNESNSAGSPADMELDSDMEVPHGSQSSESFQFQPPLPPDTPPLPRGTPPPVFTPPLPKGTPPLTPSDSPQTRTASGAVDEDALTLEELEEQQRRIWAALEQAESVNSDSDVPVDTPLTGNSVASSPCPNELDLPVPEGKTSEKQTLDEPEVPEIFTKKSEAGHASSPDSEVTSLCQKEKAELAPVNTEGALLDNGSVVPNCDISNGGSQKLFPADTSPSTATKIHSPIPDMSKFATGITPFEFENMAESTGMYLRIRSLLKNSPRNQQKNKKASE
The method, then:
as §1

The target of the next data set is T4, CELF2 (UniProt O95319).
T4 sequence: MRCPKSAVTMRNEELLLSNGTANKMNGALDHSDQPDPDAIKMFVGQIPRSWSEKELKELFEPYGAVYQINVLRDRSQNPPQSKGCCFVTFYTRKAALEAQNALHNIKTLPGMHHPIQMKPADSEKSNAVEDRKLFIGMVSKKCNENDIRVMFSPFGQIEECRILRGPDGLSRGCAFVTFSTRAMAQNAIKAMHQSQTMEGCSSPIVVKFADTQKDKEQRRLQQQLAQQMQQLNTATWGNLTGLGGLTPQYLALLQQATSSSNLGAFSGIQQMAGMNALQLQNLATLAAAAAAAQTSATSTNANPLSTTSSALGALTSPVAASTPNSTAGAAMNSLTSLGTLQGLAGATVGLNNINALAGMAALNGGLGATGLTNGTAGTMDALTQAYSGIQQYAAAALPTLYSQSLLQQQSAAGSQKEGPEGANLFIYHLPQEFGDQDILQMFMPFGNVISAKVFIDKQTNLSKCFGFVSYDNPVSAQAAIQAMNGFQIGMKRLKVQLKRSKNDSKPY
The method, then: as §1

Consider AAUAAA, for which the Kd turned out to be 81.1 nM with RTCA, 308 nM in the data set with HNRNPUL1, 190 nM with ZCCHC8 and 114 nM with CELF2.
In the same order, the values of CUGUCCU are 990 nM, 35.7 nM, 1740 nM and 948 nM.
In the same order, the values of UAUUUAU are 273 nM, 427 nM, 200 nM and 283 nM.

Values taken from the supplement of paper PMC6379048.
